The text below walks through data of the nanobody polyreactivity screen of Harvey et al. (2022).

This data set in a line: yeast display, Sf9 membrane polyspecificity reagent, FACS + sequencing; frameworks hold sequencing errors. An outline of the steps: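 Nanobodies from a synthetic yeast display library (Saccharomyces cerevisiae BJ5465), induced 36–48 hours with galactose, were stained 1 hour at 4 °C with 10% biotinylated, detergent-solubilized Sf9 membrane reagent, enriched on streptavidin microbeads, then FACS-sorted. Anti-HA (expression) and streptavidin (reagent binding) fluorescence set low and high (top ~1%) gates. Polyreactivity labels come from the gate of origin. Genes were colony-PCR amplified, MiSeq 2 × 250 sequenced and filtered by CDR length.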
As to “QVKVVESGGGLVQAGGSLRLSCAASGSIYVGYAMGWYRQAPGKERELVAAISWSGDSTYYADSVKGRFTISRDNAKNTVYLQMNSLKPEDTAVYYCAVDYAEIGPRREFEYDYWGQGTQVTVSS”, the “polyreactivity (PSR sort gate)” value was “low polyreactivity”. On to “QVLLQESGGGLVQAGGSLRLGCAASGTISPAYYMGRYHQAPGKEREFVAAITYGTNTYYADSVKGRFTISRDNAKNNVYLQMNSLKPEDTAVYYCSASAGYNGAHDYWGQGTQVTVSS”, for which the “polyreactivity (PSR sort gate)” value is “low polyreactivity”. Next, “QVLLQESGGGLVQAGGSLRLSCAARGNIFSAGGMGWYSQAPVNVRELVAGIGTGTSTNYADSVKGRFTISRDNAKNTVYLQMNSLKPEDTAVYYCASGYYSGLSHWFWGQGTQVTVSS”: “low polyreactivity”.

For “QVLLQESGGGLVQAGGSLRLSCAASGTISTDIRMGWYRLAPGKEREFVASIDGCSTTYYADSVKGRFTISRDNAKNTVFLQMNSLKPEDTAMYYCAAREATEFYLYYWGQGTQVTVSS”, the “polyreactivity (PSR sort gate)” value is reported as “low polyreactivity”. As to “QVLLQESGGGLVQAGGSLRLSCEAIGNIFSAGGMGWYRQAPVNERELVAGIGTGTSTNYAESVKGRFTISRDNAKNTVYLQMNSLNPEDTAVYYCAAAYYSGLSHWYWGQGTQVTVSS”, the “polyreactivity (PSR sort gate)” value is reported as “low polyreactivity”. The entry for “QVLLQESGGGLVQEGGSLRLTCAASGNIFSAGGMAWYRQATVNERELVAGIGTGTSTNYADSVKGRFTISRDNAKNTVYLQMNSLKPEDTAVYYCAAAYYSGLSHWYWGQCTQVTVSS” is “low polyreactivity”; for “QVLLQESGGGLVQPGGSLLLSCAASGNIFSAGGMGWYRQAPVNEPELVAGIGTGTSTNYADSVKGRFTISRDNAKNTVFLQMNSLNPEDTAVYYCAAAYYSGLSHWYWGQGTQVTVSS” it is “low polyreactivity”.

With “QVLLVDSGGGLVQAGGSLRLSCAASGRIFGPYTMARYIQAPGPERELVAAISWSGGSTYYADSVKGRFTISRDNAKNNVFLQMNSLKPEDSAVYYCNAYHPFPQYEGGSWGQGTQVTVSS”, the “polyreactivity (PSR sort gate)” value is recorded as “low polyreactivity”. The entry for “QVLLVDSGGGLVQAGGSLSLICAASGFTFYYNAMGWYRQAPGKERELVAGISGRGGTTYYADSVNGRFTISRDNAKNTVYLQMNSLKPEDTAVYYCAARKVRARSKFEYWGQGTQVTVSS” is “high polyreactivity”; for “QVLLVEAGGGLVHAGGSLRLSCAASGLIFGYYAMRWYRQAPWKERELVAAISFSGGSSYYADSVKGRFTISRDNAKNTDSLQMNSLKPEDTAVYYCAADLDGSSEYEYWGQGTQVNVSS” it is “low polyreactivity”; for “QVLLVESGGCLVQEGGSLRFSCAASGFIFAYYAMGWYRPAPGKERELVAAITSDGATYYADSVKGRFTISRDNAKNTVYLQMNSLKPEATAVYYCNTYWLLRPGYIYWGQGTQVTVSS” it is “high polyreactivity”. Next, “QVLLVESGGGLVQAGGILRLSCAASGRILPFNAMGWYRQAPGKAREFVAANSRVSGRTYYADSVKGRFTISRDNAKNTVYLQMNSLKPEDTAVYYCATDTYSYGYEYWGQGTHVTVSS”: “high polyreactivity”; “QVLLVESGGGLVQAGGSLRLSCAASGFIFVDYAMGWYRQAHGKERELVAAITSSGDRTYYADSVKGRFTISRDNAKNTVYLQMNSLKPEDTAVYYCNADWSTACYTSYDYWGQGTQVTVSS”: “low polyreactivity”; “QVLLVESGGGLVQAGGSLRLSCAASGFTFNRYDMVWYRQAPGTEREKVARITRGGSTKYADSVKGRFTISRDNAKNTVYLQMKSLKPEDTPVSYCAAGPVKRYVVQGNYWGQGTQVTVSS”: “high polyreactivity”. Next, “QVLLVESGGGLVQAGGSLRLSCAASGGTFLFYGMGWYRQAPGKERELVAVITWSGGSTYYADSVKGRFTISRDNAKNTVNLQMNSLKPEDTAVYYCNAANTGSPDYQSIGYNFNYWGQGTQVTVSS”: “low polyreactivity”. As for “QVLLVESGGGLVQAGGSLRLSCAASGIILGDNARGWYRQAPGKDRVLDATISTSGVSTYYADSVKGRFTISRDNAKKTVNFQMNSLKPQDTAVYYCAASNEVPWRFPDDSWGQGTQVTVSS”, the “polyreactivity (PSR sort gate)” value is given as “low polyreactivity”. Next, “QVLLVESGGGLVQAGGSLRLSCAASGRTFARNTMGWYRQAPGKERELVAGITSTGSTNYADSVKGRFTISRDNAKNTVYLQMNSLKPEDTAVYYCNARRYRPGSQYGYDYWGQGTQVTVSS”: “high polyreactivity”; “QVLLVESGGGLVQAGGSLRLSCAASGRTLPPNAMGWYRQAPGKERELGAGITWSGGSTYSADSVKGRFTISRDNAKNTVYLQMNSLKPEDTAVYYCAASRSFPGYGLYYYWGQGTQVTVSS”: “low polyreactivity”; “QVLLVESGGGLVQAGGSLRLSCAASGSTFPGNAMGWYRQAPGKERELVARINDGADTNYADSVKGRFTISRDNAKNTVNLQMNSLKPEDTAVYYCATPYYDGRTHFDSWGQGTQVTVSS”: “low polyreactivity”. Take “QVLLVESGGRLVQAGGSLRLSSAASGRTLNINAMGWYRQAPGKERELVAVISFNGGGTYYADSVKGRFTISRDNGKNTVYLQMNSLKPEDTAVYYCNAVRDRYASDYWGQGTQVTVTS”: the “polyreactivity (PSR sort gate)” value was “low polyreactivity”. Take “QVMLVESGGGLVQAGGSLRLSCAASGSIFKSNAMGWYRQAPGKERELVAAITRSGGSTYYADSVKGRFTISRDNAKYTVYLQMNSLKPEDTAVYYCARRPGKGNNYWGKGTQVTVSS”: the “polyreactivity (PSR sort gate)” value is given as “high polyreactivity”. Next, “QVNHVESGGGLVQAGGSLRLTCAASGRTFSRYVMGWYRQSPGKERELVAAISRTGGRTYYADSVKGRFTISRDNAKNSVYLQMNSLNPEDTAVYYCYAGTVLISTYDYWGQGTQVTLSS”: “high polyreactivity”; “QVNLEESGGGLVQAGVILRLSSAASGSIFYRNAMGWYRQAPGKEREWVAAISSGGSTYYADSVKGRFTISRDNAKNTVYLQMNSLKPEETAVYYCAKDAHIWGYRDYEYWGLGTQVTVSS”: “high polyreactivity”; “QVNLVDSGGGLVQAGGSLRLSCAASGSTFRNNAMGWSRQAPGKERELVAVITGDGGSTYYADSVKGRFTISRDNAKNTVYLQMNSLKPEDTAVYYCNARSIRYYRFRLRFGYWGQGTQVTVSS”: “low polyreactivity”.

As to “QVNLVESGVGLVQAGVSLRLSCAASGRIFQYYAMGWYRQATGKERELVAAISRSGGSTYYADSVKGRFTISRDNANNTVYLQMNSLKPEDTAVYYCAKVYRGFSYGYCGQGTQVTVSS”, the “polyreactivity (PSR sort gate)” value is “high polyreactivity”. Next, “QVPLVASGGGLVQAGGSLRLSCSASGRTFQYNAMGCYRQAPGKERELVAAITKRGTSTYFADSVKGRFTISRDNAKNTVYLQMNRLIPEDTAVYYCAALEGSLTGWQTYDYWGQGTQVTVSS”: “low polyreactivity”; “QVPLVDSGGGLVQAGGSLRLSCAASGRSYGIYAMGWYIQAPGKERELVASITGRGGSTYYADSVKGRFTISRDNAKNTFYLQKNSLKPDDTAVYFCAARDRPYVHYSGLDYWGQGTQVTVSS”: “high polyreactivity”; “QVPLVESGGGLVHAGGSLRLSCAASGIILHDNTMGWYRQAPGKERELVAAITSDGSTNYADSVKGRFTISSDNAKNTVYLQMNSLKPEDTAVYYCNTDDGPYTEFDYWRQGTQVTVSS”: “low polyreactivity”. The entry for “QVPLVESGGGLVQAGGSLRLICAASGRIFYRYAMVWYRQAPGKERELVATISRSGGSTNYADSVKGRFTISRDNAKNTVYLQMNSLKPEDTAVYYCNARYLSTRSGDYWGQGTQVTVSS” is “high polyreactivity”. Turning to “QVPLVESGGGLVQAGGSLRLSCAACGFIFGSYSMGWYRQAPGKERELVAAITSDGNTDYADSVKGRFTISRDNAKNTVYLQMNSLKPEDTAVYYCATDWVDHYDYWGQGTQVTVSS”, the “polyreactivity (PSR sort gate)” value was “low polyreactivity”. Take “QVPLVESGGGLVQAGGSLRLSCAASGRTFVGYAMGWSSQAPGKDRELVARITGRSGSTYYADSVKGRFTISRDNAKNTVYLQMNSLKTEDTAVYDCAKRITYYYPGYDDWGQGTQVTVAS”: the “polyreactivity (PSR sort gate)” value is recorded as “low polyreactivity”. In the case of “QVPLVESGGGLVQAGGSLRLSCAASGRTFWNYAMGWYRPAPGKERELVAVSRFSDGSTYYADSVKGRFTISRDNAKNTVYLQMNSLKPEDTAVDDGAAKGPRRWGSGFDYWGQGTQVTVSS”, the “polyreactivity (PSR sort gate)” value was “low polyreactivity”.

As for “QVPLVESGGGLVQAGGSLRLSCAASGSTFYTYAMGWYRQAPGKERELVATISRGGGRTYYADSVKGRFTISRDNAKYTVYLQMISLKPEDTAVYYCAARLYSSSYNSEQYYYWGQGTQVTVSS”, the “polyreactivity (PSR sort gate)” value was “high polyreactivity”. The entry for “QVPLVESGVGLVQAGGSLRLSCAASGSTFTIYAMGWYREAPGKERELVAAITWNGGSTYYADSVKGRFTISRDNAKKTVYLQMNSLKPEDTAVYYCADDYYWYWDLYDYWGQGTQVTVSS” is “high polyreactivity”. Next, “QVPLVKSGAGFVQAGGILRLSCAASGRIFPFYVNGLARQAAGQERELVATINWSGGSTYYADSVKGRFTISRDNAKNTVYLQMNSLKPADTAVYYCAAAGIGGGGWGQGTQVTVSS”: “low polyreactivity”; “QVQFVESGGGLVQAGGSLRLSCAASGSTFQGNAMGWYRQAPGKERELVAAISRSGGRTYYADSVKGRFTISRDNAKNTVYLQMNSLKPEDTAVYYCAADAYTGDIPYWWPWNNEYDYWGQGTQVTVSS”: “low polyreactivity”; “QVQHEDSGGCLVQAAGSLSVSCAATGSTFDTYEMGRSRKATGKEMELVAAISSGGGTKYADSVKGRFKISRDNAKNTVYLQMNSLKPEDTAVYYCAADKAVGDSTRYYYWGQGTQVTVSS”: “low polyreactivity”. Next, “QVQHEESGGGLVQAGGSLRLICAASGRTFADNAMGWYRQAPGTERELVPSISSVTSTNYADSVKGRFTISRDNAKYTVYFQMNSLKPEDPAVYDCNAYGPIWYTAVLGFGRYYGWTDYWGQGTQVTVSS”: “low polyreactivity”; “QVQHEESGGGLVQAGGSLRLSCAASGFTFRGYAMGWYRQAPGKERELVAAISRSGGGTYYADSVKGRFTISRDNAKNTVYLQMNSLKPEDTAVYYCAAVYRRTRSWKFDYWGQGTQVTVSS”: “high polyreactivity”; “QVQHEESGGGLVQAGGSLRLSCAASGRIFGAYPMGWSRQATGKERELVAAITSRGGNTYYADSVKGRFTISRDNAKNTVYLQMNSLKPEDTAVYYCAARHDKRRQYYVGQSAFDYWGQGTQVTVSS”: “low polyreactivity”. For “QVQHEESGGGLVQAGGSLRLSCAASGRTFLQYAMGWYRQAPGKERELVDAITTSGGDTYYSDSVKGRFTISRDNAKNTVYLQMKSLKPEDTAVFYCNADFRVYIPHVPYLVDFYYWGQGTQVTVSS”, the “polyreactivity (PSR sort gate)” value is recorded as “low polyreactivity”.
